Values joined by “and” are separate entries in the source; they are usually repeats but may differ in a detail not shown here. Equal entries are not always repeated.
Columns and labels:
human BCMA-His protein [1] = target: T1, human BCMA-His protein (human, UniProt Q02223 1-54); experiment: SPR, antibody captured on Protein A chip, BCMA-His in solution, 1:1 Langmuir
T1 construct: Bought protein; also called human BCMA protein; BCMA antigen protein; not shown: His tag
T1 sequence (looked up): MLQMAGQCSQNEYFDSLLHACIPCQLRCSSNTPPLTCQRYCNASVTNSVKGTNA
Experimental: (§1) A sample buffer and a running buffer were HBS-EP+ (10 mM HEPES, 150 mM NaCl, 3 mM EDTA and 0.05% surfactant P20) (GE Healthcare; BR-1006-69). The flow-through cell was set to 25° C. The sample block was set to 16° C. Both were pretreated with the running buffer. In each cycle, an antibody to be tested was first captured with a Protein A chip, and then a single concentration of BCMA antigen protein was injected. The binding and dissociation processes of the antibody and the antigen protein were recorded, and finally Glycine pH 1.5 (GE Helthcare; BR-1003-54) was used to complete chip regeneration. Binding was measured by injecting different concentrations of BCMA-His in solution for 240 s with a flow rate of 30 μL/min. The concentration started from 200 nM (see the detailed results for the actual concentration in the test) and was diluted at 1:1, making a total of 5 concentrations. The dissociation phase was monitored for up to 600 s and was triggered by switching from sample solution to running buffer. The surface was regenerated by washing with a 10 mM glycine solution (pH 1.5) for 30 s at a flow rate of 30 μL/min. Bulk refractive index difference was corrected by subtracting the response obtained from the goat anti-human Fc surface. Blank injection was also subtracted (=double reference). For calculation of apparent KD and other kinetic parameters, Langmuir 1:1 model was used. The binding rate (Kₐ), dissociation rate (Kdis) and binding affinity (KD) of the chimeric antibodies to human BCMA protein are shown in the table, wherein REGN5459-hlgG1 and HPN217-hHcAb antibodies were used as controls.

human BCMA on cells [2] = target: T2, human BCMA on cells (human, UniProt Q02223 1-184); experiment: FACS, U266 cells
T2 construct: whole, on cells; also called H929 cells; U266 cells
T2 sequence (looked up): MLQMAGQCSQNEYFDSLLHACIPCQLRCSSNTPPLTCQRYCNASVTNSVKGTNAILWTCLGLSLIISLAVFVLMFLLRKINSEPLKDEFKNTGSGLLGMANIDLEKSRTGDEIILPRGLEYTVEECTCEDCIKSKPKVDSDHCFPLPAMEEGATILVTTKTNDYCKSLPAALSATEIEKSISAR
Experimental: (§2) The desired cells were scale-up cultured in T-75 cell culture flasks to the logarithmic growth phase, and the cells were pipetted into a single cell suspension. After the cells were counted, the cells were centrifuged and the cell pellet was resuspended in FACS buffer (PBS+2% fetal calf serum) to 2×10⁶ cells per ml, and the suspension was added to the 96-well FACS reaction plate at 50 μl per well, then the sample to be tested of the chimeric antibody was added at 50 μl per well and the mixture was incubated at 4° C. for 1 h. The obtained mixture was centrifuged and washed 3 times with a PBS buffer. […] The obtained mixture was centrifuged and washed 3 times with a PBS buffer. 100 μl of the mixture was taken for detection and result analysis by FACS (FACS Canto™, purchased from BD Company). Data analysis was performed by software (FlowJo) to obtain the mean fluorescence intensity (MFI) of the cells. Then, a software (GraphPad Prism8) was used for analysis, data fitting and EC50 calculation. The results are shown in Table 10 and FIGS. 10A-10B, FIGS. 11A-11B, and FIGS. 12A-12B. All seven chimeric antibodies bind to three types of BCMA-expressing endogenous cells.

human BCMA on cells [3] = target: T2, human BCMA on cells; experiment: FACS, RPMI8226 cells
Experimental: as §2

human BCMA on cells [4] = target: T2, human BCMA on cells; experiment: FACS, H929 cells
Experimental: (§3) H929 cells, U266 cells and RPMI8226 cells were subjected to scale-up culture in T-75 cell culture flask to logarithmic growth phase, and the cells were pipetted to single cell suspension. After counting the cells, centrifugation was performed and the cell pellet was resuspended in FACS buffer (PBS+2% fetal calf serum) to 2×10⁶ cells per ml, and the obtained suspension was added to a 96-well FACS reaction plate at 50 μl per well.

human BCMA on cells [5] = target: T2, human BCMA on cells; experiment: FACS, RPMI8226 cells; remark: listed apart in the source
Experimental: as §3

human BCMA-His protein [6] = target: T3, human BCMA-His protein (human, UniProt Q02223 1-54); experiment: competition ELISA, coated human BCMA; blocked ligand hAPRIL-biotin
T3 construct: bought; also called human BCMA protein; not shown: His tag
T3 sequence (looked up): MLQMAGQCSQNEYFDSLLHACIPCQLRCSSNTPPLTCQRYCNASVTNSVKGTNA

human BCMA on cells [7] = target: T2, human BCMA on cells; experiment: FACS, U266 cells; remark: listed apart in the source
Experimental: as §3

human BCMA-His protein [8] = target: T3, human BCMA-His protein; experiment: ELISA, coated human BCMA-His
human BCMA on cells [9] = target: T2, human BCMA on cells; experiment: FACS, H929 cells; remark: listed apart in the source
Experimental: as §2

monkey BCMA-His protein = target: T4, monkey BCMA-His protein (monkey, UniProt A0A2K5UD97 1-53); experiment: ELISA, coated monkey BCMA-His
T4 construct: bought; monkey species not further stated for this product; also called monkey BCMA protein

[10] = target: T5, BCMA expressed endogenously on U266 and H929 cells (UniProt Q02223 1-184, limits assumed); experiment: FACS on U266 cells
T5 construct: whole, on cells; The cell line (U266 or H929) is named under assay in each row; also called B cell maturation antigen; CD269
T5 sequence (looked up): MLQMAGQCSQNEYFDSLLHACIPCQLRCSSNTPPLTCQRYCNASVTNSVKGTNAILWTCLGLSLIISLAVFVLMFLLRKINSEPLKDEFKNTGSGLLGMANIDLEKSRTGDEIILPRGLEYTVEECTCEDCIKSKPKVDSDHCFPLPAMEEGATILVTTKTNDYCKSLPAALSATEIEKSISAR
Experimental: as §2
The specific method was the same as that in Example 5 (C). First, the binding of humanized antibodies to U266 cells was detected. Based on the results, some humanized antibodies were selected and tested for binding to H929 cells. […]

human BCMA-His protein [11] = target: T6, human BCMA-His protein (human, UniProt Q02223 1-54); experiment: SPR, antibody captured on Protein A chip, BCMA-His as analyte
T6 construct: Analyte in the SPR assay; also called human BCMA protein; BCMA antigen protein; not shown: His tag
T6 sequence (looked up): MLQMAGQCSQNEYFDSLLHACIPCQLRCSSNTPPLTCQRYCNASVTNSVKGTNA
Experimental: as §1
The specific method was the same as that in Example 6. The binding rate (Kₐ), dissociation rate (Kdis) and binding affinity (KD) of the humanized antibodies to human BCMA protein are shown Table 38, wherein REGN5459-hlgG1 antibody is used as a control.

T4 sequence (A0A2K5UD97 entry or part of it limits assumed): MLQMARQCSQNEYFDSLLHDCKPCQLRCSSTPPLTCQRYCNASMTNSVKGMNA

B1: HPN217-hHcAb (VHH)
VHH: EVQLVESGGGLVQPGRSLTLSCAASTNIFSISPYGWYRQAPGKQRELVAAIHGTSTLYADSVKGRFTISRDNAKNSIYLQMNSLRPEDTALYYCNKVPWGDYHPGNVYWGQGTQVTVSS
notes: also called control antibody
Kd (human BCMA-His protein [1]): 0.818 nM
koff (human BCMA-His protein [1]): 0.00273 s⁻¹
kon (human BCMA-His protein [1]): 3.34e+06 M⁻¹ s⁻¹

B2: REGN5459-hIgG1 (antibody, V domains shown)
VH: EVQLVESGGGLVQPGGSLRLSCAASGFTFSNFWMTWVRQAPGKGLEWVANMNQDGSEKYYVDSVKGRFTISRDNAKSSLYLQMNSLRAEDTAVYYCARDREYCISTSCYDDFDYWGQGTLVTVSS
VL: not shown
EC50 (human BCMA on cells [2]): 9.52 nM and 12.8 nM
EC50 (human BCMA on cells [3]): 6.79 nM and 4.52 nM
EC50 (human BCMA on cells [4]): 6.78 nM
EC50 (human BCMA on cells [5]): 10.4 nM
IC50 (read off the curve) (human BCMA-His protein [6]): ~5 nM
EC50 (human BCMA on cells [7]): 9.12 nM
EC50 (read off the curve) (human BCMA-His protein [8]): ~0.1 nM
EC50 (human BCMA on cells [9]): 8.39 nM and 7.74 nM
EC50 (read off the curve) (monkey BCMA-His protein): ~0.1 nM

B3: REGN5459-hIgG1 (antibody, V domains shown)
VH: EVQLVESGGGLVQPGGSLRLSCAASGFTFSNFWMTWVRQAPGKGLEWVANMNQDGSEKYYVDSVKGRFTISRDNAKSSLYLQMNSLRAEDTAVYYCARDREYCISTSCYDDFDYWGQGTLVTVSS
VL: not shown
notes: also called REGN5459-hlgG1; control antibody
Kd (human BCMA-His protein [1]): 0.2 nM
koff (human BCMA-His protein [1]): 0.00017 s⁻¹
kon (human BCMA-His protein [1]): 850000 M⁻¹ s⁻¹

B4: REGN5459-hIgG1 (antibody, V domains shown)
VH: EVQLVESGGGLVQPGGSLRLSCAASGFTFSNFWMTWVRQAPGKGLEWVANMNQDGSEKYYVDSVKGRFTISRDNAKSSLYLQMNSLRAEDTAVYYCARDREYCISTSCYDDFDYWGQGTLVTVSS
VL: not shown
notes: Positive control antibody
EC50 [10]: 9.81 nM and 19.4 nM and 9.49 nM and 18.2 nM
Kd (human BCMA-His protein [11]): 0.233 nM
koff (human BCMA-His protein [11]): 0.000178 s⁻¹
kon (human BCMA-His protein [11]): 766000 M⁻¹ s⁻¹

Reference: patent publication US20250297021A1 (SHANDONG SIMCERE BIOPHARMACEUTICAL CO NO 1, published 2025)
